Data from US9333268B2, “Methods of treatment with arginine deiminase” (Polaris Group, priority 2012, dated 2016).

Tests used:
[1] = test system: human pancreatic cancer cell line MIA-PaCa2; test: Western blot/ELISA of caspase 3 cleavage, LC3 and p62; type: cell-based; conditions: 72 hours
Protocol: (§1) The human pancreatic cancer cell line MIA-PaCa2 was treated in vitro and in vivo with pegylated arginine deiminase (ADI-PEG) alone or in the presence of ChQ. Cell death was measured by propidium iodide (PI)-FACS to determine sub-G1 DNA content, and apoptosis was evaluated by Annexin V-PI flow cytometry. Cleavage of caspase 3 was evaluated by western blots and ELISA. Autophagy was measured by evaluating the expression levels of LC3 and […] p62 (p62) by western blots and ELISA.
(§2) In order to determine if ADI induces apoptosis and autophagy in a caspase dependent manner, cells were incubated with either ADI-PEG or a combination of ADI-PEG and ZVAD-fmk, a pan-caspase inhibitor.
(§3) The levels of p62, LC3B-I, and LC3B-II were measured by western blot analysis in order to examine autophagic flux.

[2] = test system: human pancreatic cancer cell line MIA-PaCa2; test: Cell death by PI-FACS (sub-G1 DNA content) and Annexin V-PI flow cytometry; type: cell-based
Protocol: as §1, §2, §3
In order to examine whether ChQ alters the amount of apoptotic or non-apoptotic cell death when used in combination with ADI, cells were incubated with ADI-PEG alone or a combination of ADI-PEG and ChQ.

B1: ADI-PEG: ADI covalently modified with PEG (with or without a linking group) (protein, listed as Mycoplasma hominis)
chain: MSVFDSKFNGIHVYSEIGELETVLVHEPGREIDYITPARLDELLFSAILESHDARKEHQSFVKIMKDRGINVVELTDLVAETYDLASKAAKEEFIETFLEETVPVLTEANKEAVRAFLLSKPTHEMVEFMMSGITKYELGVESENELIVDPMPNLYFTRDPFASVGNGVTIHFMRYIVRRRETLFARFVFRNHPKLVKTPWYYDPAMKMSIEGGDVFIYNNETLVVGVSERTDLDTITLLAKNIKANKEVEFKRIVAINVPKWTNLMHLDTWLTMLDKNKFLYSPIANDVFKFWDYDLVNGGAEPQPQLNGLPLDKLLASIINKEPVLIPIGGAGATEMEIARETNFDGTNYLAIKPGLVIGYDRNEKTNAALKAAGITVLPFHGNQLSLGMGNARCMSMPLSRKDVKW
modifications: PEGylated
LC3B conjugation with PE ([1]; dose dependent): LC3B conjugation with PE | caspase cleavage ([1]; dose dependent): induces caspase cleavage | apoptosis as measured by caspase 3 cleavage ([1]; ADI-PEG 0.3 μg/mL, western blot): induction of apoptosis | Annexin V depolarization ([2]; 0.3 μg/mL, 72 hours, vs PBS): induced Annexin V depolarization | number of cells in sub-G0/G1 ([2]; ADI-PEG alone): increased the number of cells in sub-G0/G1
